Test results as given in PMC10482962, “Structural and functional analysis of aquaporin-2 mutants involved in nephrogenic diabetes insipidus” (Scientific Reports, 2023).
Numbering of substitutions follows the chain as printed. In names and notes the source's numbering stands.

B1: aquaporin-2 (AQP2): T125M (protein)
parent chain: MWELRSIAFSRAVFAEFLATLLFVFFGLGSALNWPQALPSVLQIAMAFGLGIGTLVQALGHISGAHINPAVTVACLVGCHVSVLRAAFYVAAQLLGAVAGAALLHEITPADIRGDLAVNALSNSTTAGQAVTVELFLTLQLVLCIFASTDERRGENPGTPALSIGFSVALGHLLGIHYTGCSMNPARSLAPAVVTGKFDDHWVFWIGPLVGAILGSLLYNYVLFPPAKSLSERLAVLKGLEPDTDWEEREVRRRQSVELHSPQSLPRGTKA
B2: human aquaporin-2 (AQP2), truncated after residue 242 (domain or fragment, UniProt P41181 1-242, looked up)
chain: MWELRSIAFSRAVFAEFLATLLFVFFGLGSALNWPQALPSVLQIAMAFGLGIGTLVQALGHISGAHINPAVTVACLVGCHVSVLRAAFYVAAQLLGAVAGAALLHEITPADIRGDLAVNALSNSTTAGQAVTVELFLTLQLVLCIFASTDERRGENPGTPALSIGFSVALGHLLGIHYTGCSMNPARSLAPAVVTGKFDDHWVFWIGPLVGAILGSLLYNYVLFPPAKSLSERLAVLKGLEP
notes: aquaporin-2 (AQP2), human, C-terminal truncation at P242; the construct used for the structure PDB 4NEF; His-tag removed by TEV protease before SEC; also called wild-type AQP2; hAQP2; source: Pichia pastoris X33, purified (IMAC, TEV cleavage, second IMAC, SEC); not shown: His8, N-terminal, cleaved
B3: human aquaporin-2 (AQP2) T125M, truncated after residue 242 (domain or fragment, UniProt P41181 1-242, looked up)
chain: B2 chain with T125M
notes: aquaporin-2 (AQP2), human, C-terminal truncation at P242, with the recessive NDI patient mutation T125M; Mutation identified in patients with autosomal recessive NDI; same construct limits as m1; source: Pichia pastoris X33, purified (IMAC, TEV cleavage, second IMAC, SEC); not shown: His8, N-terminal, cleaved

Key:
[1] = size-exclusion chromatography; conditions: glycan lost; control: wild-type AQP2 (same construct)
[2] = target: the molecule itself; test: SEC; size-exclusion chromatography of the purified protein immediately prior to reconstitution into liposomes; peak integrals quantified in % of the total population to estimate the oligomeric states

Row | Protein | oligomerisation [1] | stoichiometry N [2]
1 | B1 | no change | 
2 | B2 |  | 4
3 | B3 |  | 4
